# Measured values as given in article PMC4366279 (PLoS ONE, 2015).
# Residue numbers refer to the chain shown, from its start.
# T1: T. brucei RNA Editing Ligase 1 (TbREL1), full length wild type (Trypanosoma brucei, UniProt P86926 45-469, [35S]-methionine labelled)
# T1 sequence: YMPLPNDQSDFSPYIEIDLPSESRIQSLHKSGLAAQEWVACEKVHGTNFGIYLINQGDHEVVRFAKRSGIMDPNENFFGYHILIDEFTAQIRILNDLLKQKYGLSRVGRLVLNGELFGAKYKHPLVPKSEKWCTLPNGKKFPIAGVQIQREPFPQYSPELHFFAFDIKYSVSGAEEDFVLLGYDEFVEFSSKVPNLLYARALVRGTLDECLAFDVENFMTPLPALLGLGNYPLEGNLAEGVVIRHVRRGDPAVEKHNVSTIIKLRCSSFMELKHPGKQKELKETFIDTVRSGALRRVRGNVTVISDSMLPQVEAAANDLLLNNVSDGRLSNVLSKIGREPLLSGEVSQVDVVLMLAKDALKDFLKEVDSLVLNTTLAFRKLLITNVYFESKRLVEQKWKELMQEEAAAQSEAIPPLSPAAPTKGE
# T2: TbREL1 F206A (Trypanosoma brucei, UniProt P86926 45-469, F206A, [35S]-methionine labelled)
# T2 construct: Site-directed mutagenesis of TbREL1-pET30a; source: in vitro translated (TNT reticulocyte lysate coupled transcription and translation system, Promega); not shown: His6, N-terminal, kept
# T2 sequence: T1 sequence with F162A
# T3: TbREL1 K441A (Trypanosoma brucei, UniProt P86926 45-469, K441A, [35S]-methionine labelled)
# T3 construct: Site-directed mutagenesis of TbREL1-pET30a; source: in vitro translated (TNT reticulocyte lysate coupled transcription and translation system, Promega); not shown: His6, N-terminal, kept
# T3 sequence: T1 sequence with K397A
# T4: TbREL1 E444A (Trypanosoma brucei, UniProt P86926 45-469, E444A, [35S]-methionine labelled)
# T4 construct: Site-directed mutagenesis of TbREL1-pET30a; source: in vitro translated (TNT reticulocyte lysate coupled transcription and translation system, Promega); not shown: His6, N-terminal, kept
# T4 sequence: T1 sequence with E400A
# B1: KREPA2 (natural protein)
# chain: MYRRFFRSAAVKHLGTTSAQCLMRATKYPCGAMCRNASSCHPQTLGYQQRFQSTTDKKFHCSVCKKPFRLEMAAKLHLQQAHGGDGSVEAGPGPGVEASSVNVVSTPVPSPISPVERTFVDEEERRPRRMRPTPKPLHQPDRDIPAAAMEEMLGVWDKIGLNRLEGNFVHSTMVMKVFAAPPDVSEIPLYEHVAPEGENPFDSLDHMTTGTVDATYVGHDAFAEVDLVDPFVAAPDQTLNPFRAGKVRNPFTRISPTQREVVKPLQPPQPKEEPLKAPVTPFGQLPMFGQTREPSASFAAAAVSVQAAANPNEVSSPFAAAVSSSPFVGQVASPFAPAQDVAGSPFEASPCAASSPFVTAGGQETSPFAAPSTPASFGQGSLFPPMGTGAPGFTAITETEQRQQELEHGCPTCGKKFSTFEGAAMHSKSKHGIVLESKKVKDRLNRKGVPDLPAYVPSPVDLSSTSPFGTRSAIGASWAETELIPHAQCVSNITIVGRVLDVSQASENVSHVTVFVEGERSGEEETLTLCCFGEVSQKIRGTLKRNATIFASGTLRLHPVYEASNNKYYVSPVVHVSMPTGTLAVIT
# modifications: [35S]-methionine labelled
# notes: KREPA2 of T. brucei, the KREPA2 open reading frame, expressed untagged (63 kDa); source: in vitro translated (TNT reticulocyte lysate coupled transcription and translation system, Promega)
# Legend:
# [1] = target: T1, T. brucei RNA Editing Ligase 1 …; assay: cell-based or functional assay
# [2] = target: T2, TbREL1 F206A; assay: pull-down; His6-TbREL1 TNT mixture mixed with an equal volume of untagged KREPA2 TNT mixture, captured on magnetic His-tag isolation beads (Dynabeads); binding buffer 50 mM NaPO4 pH 8.0, 300 mM NaCl, 0.01% Tween 20; 20-30 min at 4°C; three washes; [35S]-methionine-labelled proteins on 10% SDS-PAGE, PhosphorImager; KREPA2-only control for background; details: partners not purified
# [3] = target: T3, TbREL1 K441A; assay: as above; details: partners not purified
# [4] = target: T4, TbREL1 E444A; assay: as above; details: partners not purified
binder,measurement,setting,value
B1,"adenylylation activity of TbREL1, enhancement in the presence of equimolar KREPA2",[1],6.7 fold
same,"ligation activity of TbREL1 (pre-cleaved RNA ligation assay), enhancement in the presence of equimolar KREPA2",[1],3.6 fold
same,relative pulldown (% of the KREPA2 pulled down by TbREL1 WT),[2],< 50%
same,relative pulldown (% of the KREPA2 pulled down by TbREL1 WT),[3],< 50%
same,relative pulldown (% of the KREPA2 pulled down by TbREL1 WT),[4],< 50%
